Data published in PMC13078783, “Kinesin-1 conformational dynamics are controlled by a cargo-sensitive TPR switch” (eLife, 2026).
No end group written: not given here.

Columns and labels:
KLC2 TPR domain = biological target: T1, KLC2 TPR domain; experiment: fluorescence polarisation; TAMRA-conjugated peptide at 150 nM, increasing KLC1/2 TPR protein (typically 0–25 μM); 25 mM HEPES pH 7.4, 5 mM β-mercaptoethanol, 150 mM NaCl; room temperature; one-site specific binding model; details: both partners purified
T1 construct: kinesin light chain 2 (KLC2), TPR domain, residues A196-K480, in pET28His-Thrombin; source: E. coli BL21(DE3), purified (His-Trap, SEC)

KLC1 TPR domain = biological target: T2, KLC1 TPR domain; experiment: as above; details: both partners purified
T2 construct: also called isolated TPR domains; KLC-1 TPR protein; source: E. coli BL21(DE3), purified (His-Trap, SEC)

[1] = biological target: the molecule itself; experiment: AUC; sedimentation equilibrium, 20 °C, PBS, 100 μM total peptide, 44–60 krpm, single ideal species model

- Kd (KLC2 TPR domain): 2.7 µM
- Kd (KLC1 TPR domain): ~25 µM
B1: Eng-TDS (peptide)
chain: ENEALKDEVKELLQALEELAVNYDQLSQ-NH2
modifications: also: TAMRA-conjugated, position not given here
- stoichiometry N [1]: 2
